In patent US20210198377A1 (XDCEXPLORER SHANGHAI, published 2021):
Where a chain is given by its changes, count along the chain named.

T1: human TPBG-hFc (human, UniProt Q13641 32-355)
T1 construct: also called immunogen A; hFc tagged TPBG protein; not shown: The human IgG Fc fragment of the pCpC vector (Invitrogen V044-50) and any linker to it
T1 sequence: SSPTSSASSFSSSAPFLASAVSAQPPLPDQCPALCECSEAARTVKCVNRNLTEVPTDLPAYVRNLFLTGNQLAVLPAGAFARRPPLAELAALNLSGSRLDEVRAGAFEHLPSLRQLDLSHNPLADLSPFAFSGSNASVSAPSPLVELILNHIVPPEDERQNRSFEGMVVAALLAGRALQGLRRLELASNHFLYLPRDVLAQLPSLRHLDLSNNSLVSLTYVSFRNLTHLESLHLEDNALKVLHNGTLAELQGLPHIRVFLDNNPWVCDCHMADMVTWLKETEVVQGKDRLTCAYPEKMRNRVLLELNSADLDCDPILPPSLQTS

T2: biotinylated recombinant TPBG protein (Homo sapiens (Human), UniProt Q13641 32-355, Biotinylated; the number and positions of the biotin labels are not stated and the letters do not carry them.)
T2 sequence: T1 sequence

B1: 28D4E6A9 (antibody, V domains shown)
VH: DVQLVESGGGLVRPGGSLKLSCAASGFTFSNYVMSWARQSPEKRLEWVAEISTGGSHTYYSDTVTGRFTISRDNAKKALYLEMSSLRSEDTAIYYCIMFYYGSSYSMDYWGQGTSVTVSS
VL: DIQMTQSTSSLSASLGDRITISCRASQDIRNYLNWYQQKPDGTVKLLIYHTSRLHSGVPSRFSGSGSGTDYSLTISNLEQEDIATYFCQQGDTLPLTFGAGTRLELK
notes: Mouse hybridoma antibody purified from culture supernatant; also called TPBG antibody; lead antibody
B2: 37H9C5G2 (antibody, V domains shown)
VH: QVQLQQSDAELVRPGASVKMSCKVSGYTFTDHTIHWMKQRPEQGLEWIGYIYPRDGSGTYNEKFKGKATLTADKSSSTAYMQLNSLTSEDSAVYFCARDGSSHYWYFDVWGTGTTVTVSS
VL: DIQMTQSPASLSASVGETVTITCRASEIIYNYLAWYQQKQGKSPQLLVYNAKTLAEGVPSRFSGSYSGTQFSLNINSLQSEDFGIYYCQHHHDTPLTFGAGTKLDLK
notes: as for B1
B3: 106D5G3D10 (antibody, V domains shown)
VH: EVQLVESGGGLVKPGGSLKLSCAASGFTFSDYGMHWVRQAPEKGLEWVGYISSGTYVVYYADTVKGRFTISRDNAKNTLFLQMTSLRSEDTAIYYCSTYGSNPFDYWGQGTTLTVSS
VL: QLVLTQSPAIMSASPGEKVTITCSATSSVSSMHWFQQKPVTSPKLWIYSTSNLASGVPTRFSGSGSGTSYSLTISRMEAEDAATYYCQQRSGYPPIFTFGSGTKLEIK
notes: as for B1
B4: 39A11G5F2 (antibody, V domains shown)
VH: QVQLQQSGAELMKPGASMRLSCKATGYTFTGYWLEWIKRRPGHGLEWIGEILPGRGSTNYNEKFKGKATFTAETSSNTAYMQLTSLTTEDSAIYYCARGGRDFDNWGQGTTLTVSS
VL: DIQMTQSTSSLSASLGDRVTISCSASQGINNHLNWYQQKPDGTVKLLIYYTSSLHSGVPSRFSGSGSGTDYSLTISNLEPEDIAIYYCQQFSKLPYTFGGGTKVEMK
notes: as for B1
B5: 52C9E9F6 (antibody, V domains shown)
VH: QVQLQQSGAELMKPGASVKLSCKATGYTFTGYWIEWIKQRPGHGLEWIGEILPGRGSTDYNEKFKGKATFTADTSSNTAYMQLSSLTTEDSAIYYCTRGRLDFTYWGQGTLVTVSA
VL: B4 VL with S7T, N30R, H32Y, I85T, F91Y, L94V, Y96W, V104L, M106I
notes: as for B1
B6: 36A10D8B12 (antibody, V domains shown)
VH: DVQLQESGPGMVKPSQSLSLTCTVTGYSITSGYDWHWIRHFPGNKLEWMGYISYSGNTNYNPSLKSRISITHNTSKNHFFLRLNSVTTEDTATYYCARGYGNWDAMDYWGQGTSVTVSS
VL: DIVMTQSQKFMSTSVGDRVSVTCKASQIVDTNVAWYQQKPGQSPKALISSASYRYSGVPDRFTGSGSGTDFTLTISNVQSEDLAEYFCQQYNSYPLTFGAGTKLELT
notes: as for B1
B7: 5G4H10G5 (antibody, V domains shown)
VH: EVQLVESGGDLVQPGGSLKLFCAASGFTFSTYGLSWVRQTPDKRLELVATITNNDGSAYYPDSVKGRFTISRDKAKNTLFLQMTSLKSEDTAMYYCARETGFGSSYLFDYWGQGTLVTVSA
VL: NIVMTQTPKFLLVSAGDRVTITCKASQSVSNDVAWYQQKPGQSPKLLIYFATNRYTGVPNRFTGSGYGTEFTFTISSVQAEDLAVYFCQQDYSSPTFGGGTKLEIK
notes: as for B1
B8: 103E2E9C2 (antibody, V domains shown)
VH: EVQLQQSGPVLVKPGASVKMSCEASGYSFIDYYMSWVKQSRGRSLEWIGVFNPYSGEIIYNQKFKGKATLTVDKSSSTAYMELSSLTSEDSGVYSCARLRISYYAIDYWGQGTSVAVSS
VL: ENVLTQSPAIMSASPGEKVTMTCRATSSVSSGHFHWYQQKSGASPKVWIYSTSNLASGVPARFSGSGSGTSFSLTISSVEAEDVATYFCQQYSGYPLTFGGGTKLEIK
notes: as for B1
B9: 99E12C7H1 (antibody, V domains shown)
VH: QIQLVQSGPELKKPGETVKISCKPSGYTFTAYGLSWVKQAPGQGFQWMGWINTYSGVPTYTDDFKGRFAFSLETSAGTASLQITNLKNEDTATYFCARSSIPPFEYWGPGTTLTVSS
VL: SFVMTQSPKFLLVSVGDRVTITCKASQSVSNDVAWYQQKPGQPPRVLIYFASNRYTGVPDRFTGSGYGTDFTFTISTVQAEDLALYFCQQDYSSPWTFGGGTKLEIK
notes: as for B1

Target: T1, human TPBG-hFc
Assay: ELISA, coated human TPBG-hFc 1.0 ug/mL; antibody 200 nM
Method: (§1) The purified immunogen A (as for its method of preparation please refer to step 1 in Example 1) diluting with PBS to a final concentration of 1.0 μg/mL was aliquoted into a 96-well ELISA plate at 100 μL per well, and sealed with a parafilm and incubated at 4° C. overnight. The plate was washed twice with plate washing buffer (PBS containing 0.01% (v/v) Tween 20), and blocked with blocking buffer (PBS containing 0.01% (v/v) Tween 20 and 1% (w/w) BSA) at room temperature for 2 h. The blocking buffer was discarded, and 100 μL per well of the purified antibody obtained from Embodiment 2 was added. After incubating at 37° C. for 2 h, the plate was washed for three times with plate washing buffer (PBS containing 0.01% (v/v) Tween 20). HRP (horseradish peroxidase)-labeled secondary antibody (purchased from Sigma) was added and incubated at 37° C. for 2 h, and the plate was washed for three times using plate washing buffer (PBS containing 0.01% (v/v) Tween 20). 100 μL of TMB substrate was aliquoted into each well, incubated at room temperature for 30 min, and 100 μL of stop buffer (1.0N HCl) per well was subsequently added. A₄₅₀ₙₘ values were read using the ELISA plate reader (SpectraMax 384plus purchased from Molecular Device), and the results were shown in FIG. 6 and table 6. […] In Table 6 the IgG control herein is a mice IgG control, the data in the Table are OD₄₅₀ₘₙ values, and Blank means the OD₄₅₀ₘₙ value when there is only PBS buffer in the plate.

Point of comparison: B2, OD450nm 2.61 OD450nm. Against it:
- B1 — lower, 2.6 OD450nm
- B3 — higher, 2.88 OD450nm
- B4 — lower, 2.55 OD450nm
- B5 — higher, 2.65 OD450nm
- B6 — lower, 2.51 OD450nm
- B7 — higher, 2.72 OD450nm
- B8 — lower, 2.6 OD450nm
- B9 — higher, 2.93 OD450nm

Target: T1, human TPBG-hFc
Assay: ELISA, coated human TPBG-hFc 1.0 ug/mL; antibody 0.02 nM
Method: as §1

Point of comparison: B6, OD450nm 0.51 OD450nm. Against it:
- B1 — lower, 0.46 OD450nm
- B2 — lower, 0.35 OD450nm
- B3 — higher, 0.56 OD450nm
- B4 — lower, 0.3 OD450nm
- B5 — lower, 0.27 OD450nm
- B7 — lower, 0.34 OD450nm
- B8 — lower, 0.48 OD450nm
- B9 — higher, 0.78 OD450nm

Target: T1, human TPBG-hFc
Assay: ELISA, coated human TPBG-hFc 1.0 ug/mL; antibody 0.0002 nM
Method: as §1

Point of comparison: B8, OD450nm 0.1 OD450nm. Against it:
- B1 — the same, 0.1 OD450nm
- B2 — lower, 0.09 OD450nm
- B3 — higher, 0.11 OD450nm
- B4 — lower, 0.09 OD450nm
- B5 — lower, 0.09 OD450nm
- B6 — higher, 0.16 OD450nm
- B7 — lower, 0.08 OD450nm
- B9 — higher, 0.11 OD450nm

Target: T2, biotinylated recombinant TPBG protein
Assay: competitive ELISA; row antibody 5 ug/mL; competitor: coated 37H9C5G2
Method: (§2) The purified antibodies to be tested were diluted to 1 μg/mL using PBS, and coated with high-adsorption of 96-well microplates at […]. After overnight coating at 4[…], 250 μL of blocking buffer (PBS containing 0.01% (v/v) Tween20 and 1% (w/w) BSA) was added to block coating at room temperature for 1 h, and 0.05 μg/mL of biotinylated recombinant TPBG protein was added to each well. Meanwhile, 5 μg/mL final concentration of competitive antibodies, i.e. the purified antibodies obtained from Embodiment 2 with the clone number of 12B12C7C3, 5G4H10G5, 37H9C5G2, 39A11G5F2, 52C9E9F6, 28D4E6A9, 36A10D8B12, 99E12C7H1, 103E2E9C2 and 106D5G3D10 were added and incubated at 25-37° C. for 1-2 h. The plates were washed three times with plate-washing buffer (PBS containing 0.01% (v/v) Tween20) and HRP (horseradish peroxidase)-labeled streptavidin (purchased from Sigma) was added. After incubating at 37° C. for 0.5 h, the plates were washed three times with plate-washing buffer (PBS containing 0.01% (v/v) Tween20), and 100 μL of TMB substrate was added to each well and the plates were further incubated at room temperature for 30 min prior to adding 100 μL of stop buffer (1.0N HCl) to each well. A₄₅₀ₙₘ values were read using an ELISA microplate reader (SpectraMax 384plus purchased from Molecular Device) and results were shown in FIG. 6. The higher the values of the competition rate, the closer the antigen surface of the two antibodies are.

Point of comparison: B7, competition rate 5%. Against it:
- B1 — lower, 0%
- B2 — higher, 96%
- B3 — lower, 3%
- B4 — lower, 0%
- B5 — lower, 4%
- B6 — higher, 96%
- B8 — higher, 23%
- B9 — the same, 5%

Target: T2, biotinylated recombinant TPBG protein
Assay: competitive ELISA; row antibody 5 ug/mL; competitor: coated 5G4H10G5
Method: as §2

Point of comparison: B8, competition rate 7%. Against it:
- B1 — higher, 11%
- B2 — higher, 12%
- B3 — higher, 40%
- B4 — higher, 19%
- B5 — higher, 32%
- B6 — higher, 17%
- B7 — higher, 97%
- B9 — higher, 95%

Target: T2, biotinylated recombinant TPBG protein
Assay: competitive ELISA; row antibody 5 ug/mL; competitor: coated 103E2E9C2
Method: as §2

Point of comparison: B5, competition rate 0%. Against it:
- B1 — higher, 88%
- B2 — higher, 38%
- B3 — the same, 0%
- B4 — the same, 0%
- B6 — higher, 40%
- B7 — higher, 2%
- B8 — higher, 88%
- B9 — higher, 1%

Target: T2, biotinylated recombinant TPBG protein
Assay: competitive ELISA; row antibody 5 ug/mL; competitor: coated 12B12C7C3
Method: as §2

Point of comparison: B3, competition rate 95%. Against it:
- B1 — lower, 24%
- B2 — lower, 6%
- B4 — lower, 9%
- B5 — lower, 27%
- B6 — lower, 21%
- B7 — lower, 9%
- B8 — lower, 0%
- B9 — lower, 11%

Target: T2, biotinylated recombinant TPBG protein
Assay: competitive ELISA; row antibody 5 ug/mL; competitor: coated 39A11G5F2
Method: as §2

Point of comparison: B9, competition rate 1%. Against it:
- B1 — lower, 0%
- B2 — higher, 3%
- B3 — the same, 1%
- B4 — higher, 96%
- B5 — higher, 97%
- B6 — higher, 4%
- B7 — higher, 10%
- B8 — lower, 0%

Target: T2, biotinylated recombinant TPBG protein
Assay: competitive ELISA; row antibody 5 ug/mL; competitor: coated 106D5G3D10
Method: as §2

Point of comparison: B4, competition rate 4%. Against it:
- B1 — higher, 5%
- B2 — the same, 4%
- B3 — higher, 94%
- B5 — higher, 7%
- B6 — higher, 14%
- B7 — lower, 3%
- B8 — lower, 0%
- B9 — higher, 12%
